{"source": "the DeepSol protein solubility set", "data": [{"assay": "soluble on expression in E. coli; label from the status in PepcDB or PDB records", "values": [{"sequence": "MSESGHRKGQAIIVQYSDSSSAYYAYAEGIEDDIIISSRYCPSNEDLLGKWIHLAIDDRSYACDTIQVIDDVFETKVFRGQVEVKINIQFDGRTARGMGMFYNDYFGYICDPNNVLHNTRDGANHNNVWVVRRNAEGLNSRWKVSSEQDDIQHIFPRPENVDKLETVVGVITTHAKLGDFYLVWSPSRPRSTICIAYKFCPSKSNLLGTWAEMRVNRSQRVQRPISVIDALYETRTIFGMTEFRIDFQQTRRFNPDYHLFYHEYFGGILDTLCIIDDVKEGGWYNGWIVYSQHSDASTYWRLAMKQTVLGPYNSPYSCLSPLQQDNNFNEPRNMDPNPPYRTRDRSRSMDRSTRHATRRVDEFTHKRRSPSPEVINVYKEPSRSHANELYDSQKNQYTSHEGHSTSSPTAENRQCHRSRSPEQSNFRPSQTVPGLSSMEQRKAHENVDWGPHRTKNVPPIRSATETPETDHRQDDQSVASTSALYLLDSPGPDPSPKLHLTSEEKELKKLKTKLSRICKLSLSFTANDSVSTPMQLHSLEEYEELIKLTNKFQ", "soluble on expression in E. coli": "not soluble"}, {"sequence": "MSESLTWHDVIGNEKQQAYFQQTLQFVESQRQAGKVIYPPAKDVFNAFRFTEFGDVKVVILGQDPYHGPNQAHGLCFSVLPGVKTPPSLVNIYKELAQDIPGFQIPPHGYLQSWAQQGVLLLNTVLTVEQGMAHSHANTGWETFTDRVIDALNQHRNGLIFLLWGSHAQKKGQMIDRQRHHVLMAPHPSPLSAHRGFLGCRHFSKTNQLLQAQGIAPINWQPELES", "soluble on expression in E. coli": "soluble"}, {"sequence": "MSETIFGKILTGEIPSFKVYEDDYVYAFLDISQVTKGHTLLIPKKASANIFETDEETMKHIGAALPKVANAIKRAFNPDGLNIIQNNGEFADQSVFHIHFHLIPRYENDIDGFGYKWETHEDILDNDAKQQIAEQIQAQF", "soluble on expression in E. coli": "not soluble"}, {"sequence": "MSFAQQKLSELAVSIPGATKIFREYDLDFCCGGSVLLEVAAQQKNLNLAEIEKRLTDLQQSKAENNDKDWTSASYAEMIDHIITRFHNRHREQLPELITLAEKVENIHGDRDDCPIGVVAQLEKIYAELSQHLMKEEQILFPMIKMGNYAMASMPIRVMEMEHDEAGQDVEVIKSLTNNCTPPADACFSWKALYSGINEFIDDLMHHIHLENNILFPRVLNEK", "soluble on expression in E. coli": "not soluble"}, {"sequence": "MSFERSRHDLKLKTSDGMHCVMTNKEIVCLASQFFRQHLKDTTTEFTVGRADSVESIDICLTYMITGIYKKPAQFSPKLASEIFALANQWKVLEPKVLKNSIEKHCCEELQKNYEDIMYVCNMLIIAEDAHFTNVQSCCIATLVFYHVRDFIRIIVNGVESPTEECFSQRREFLKPSLTMQAKRAFAASNEAKCFIKFLPAIGED", "soluble on expression in E. coli": "not soluble"}, {"sequence": "MSFESNQLMPIAALRGGPGTPAADVLTAFALRRKAEGIDVVGVIVPPEDAGSGHQGHGHGEGHGGGHEGCECRSELIDIATGDRYAMHQDLGSGSQACNLNSSSLALAAGAVERAVARKPALVVLSRFGGQEAVRGGLMSAFQAAIAAGVPVACVVTPKAEDVWNDFAQGLSVSLPPEADALEAWWRDHARGRNAALEHHHHHH", "soluble on expression in E. coli": "not soluble"}, {"sequence": "MSFFDELKTSLEEAVEIKQGLKEPARVTRYEIADVKAIREQLNVSQSEMAKALGTSVDTIKSWESKRRNPTGLAAKVLATIKENPAFFRELASH", "soluble on expression in E. coli": "not soluble"}, {"sequence": "MSFFDKVKGALTSGREELTRQVGRYKNKKFMQGTVAVCARIAVASDGVSSEEKQKMIGFLRSSEELKVFDTAEVIEFFNKLVTSFDFDLEIGKGETMKYILALKDQPEAAQLALRVGIAVAKSDGNFDDDEKSAVREIARSLGFDPAEFGLLE", "soluble on expression in E. coli": "soluble"}, {"sequence": "MSFILPSESIDGTHPCNGLHMNGQDSLVQPLLTDFYQITMCYAYWKTGTHNEPAVFDVFFRKNPFQGEFTVFAGLEDCLRFVENFKFSQSDIDYVKKILPENAEPEFYEYLETLNGSHLTIEAVAEGSVVFPKVPLLTINGPLAMCQLIETSILNLVNYASLVATNAARFRQASGWKIQLLEFGLRRAQGPNGGLTASKYCYIGGFDATSNVLAGKLYGIPVKGTQAHSFICSFSSPAELKVRLLNHKITNEKADLFQISMEKRAWLLDQFSWKAALSEVSDGELSAFVAYAIAFPDTFLALIDTYDVIRSGVVNFVAVSLALHDLGYRSMGCRIDSGDLSYLSKELRECFVKVSTLKGEYKFFEKMSIVASNDINEETIMSLNDQQHEINAFGVGTHLVTCQKQPALGCVYKLVAQSAQPKIKLSQDVTKITIPGKKKCYRIFGKNGYAILDLMMLEDEPEPQPNQQILCRHPFEVESKRALVNANKIIKLHNVYWKDGEMITPLPTLNEIKEHVNESIRSTLRQDHRRYLNPTPYKVSVSERLYQFLHTLWLQNAPIGQLE", "soluble on expression in E. coli": "soluble"}, {"sequence": "MSFLGFTLVGKKIRWTEKSLANFKHRVRQLTGRSWGVSMEYRLEKLGQYLRGWFGYYGISQYYRPIPELDEWIRRRVRMCYWKQWRWARTKIRHLLDLGIPLKAAIQHGVSSLSYWRMARTPLEHHHHHH", "soluble on expression in E. coli": "soluble"}, {"sequence": "MSFNLSVIGAGLPVAQSTTTLIDALRTHRMAVVQAPPGTGKTTLVPPIAHNVTGGRVIVVAPRRVAVRAAAHHLVQLDQSSCDQPSTHRVGYTIRGERSRGDLVEFVTPGVLLRRLISNPELDGVSAVVVDEVHERQLDTDLVLGMLVELRELRDDLTVIAMSAT", "soluble on expression in E. coli": "not soluble"}, {"sequence": "MSFRLRIDDSVTADHVVCWGVTVALLKKSLFGSTPEERKRRVEEKISQAVVELGLEGLSDEFRVSMLSAWVRYYVFRVDAGEKTFVLNVLSPNSPVKSFRDILDPLRGLFEKFRENIAVPVAYTDEFMLQEWINGLPLSELRDGDVMRSDEKSRRIIEESIYLTARLLYRLWKEGFVYSPWEDYEAMYCDGKIVLLDVTRFEKKPSNESFLQHYYGAPFCPPDVLKDPKSPVNRLYFRGTSERDYFGVEREKYEELFLKGIRDECGSEQEFKILLGDCEAVERIKRV", "soluble on expression in E. coli": "not soluble"}, {"sequence": "MSFRTIEWRDDKVVMIDQTRLPGEEVYCEYADYKSVAEAIRGMVIRGAPAIGVAAAMGVALGAREIIADTYESFFRQMENVCDVMARTRPTAVNLFWAIERMKRVADENRDKPLDQLREILKTEAIRIEQEDLELCKAIGRHGAALIPEGATVLTHCNAGGLATAGYGTALGVIRAAHDAGKKIQVFADETRPWLQGARLTAWELMKDGIPVTLISDNMAGFFMKRGEIACCVVGADRIAANGDTANKIGTYSVAVLAKENNIPFYVAAPTTTLDLSLENGDQIPIEERHSREVTHLHGFPVAPEGIRVRNPAFDVTPARYISAIITEQGVVSGDYVTGLRGLVAPLEHHHHHH", "soluble on expression in E. coli": "not soluble"}, {"sequence": "MSGAAADGIDDRDIPKQEFLDAAFNGDIDKIDGLLRDKKVHIDSVDDDQVTALHIAAAMGNNKLVVRLLDYGANIHAVNHLGMTAYHYAAREGKLAVLDTLMQRGASKNQTTALGVTALTLACAGGHADVVRRLIRISNETPRSKQSLAPTPLIVATCSKSPQICSYLADFRVNLDESMKNLGNLTALSMAIVCTPGVYMVRTLIDLGASVNKKGLGDKTAEELAIMLNRKDLIHFFNEKKSYRSRMNADSDVRKEIKNDHIIERELGAPAQNGVSPLMYATTVRSINSAKHLVLHRDSDVNMRDNLHITSLQIASLLRVDDIIPLLLQRRADVTVVNKYGSTAYDLFLLSCDFLEPGQLRGQLHCHRPIDSKSNLNSSSSNIYKALRSQGILTKVGSQIGINSAKIELIEPKHWLAAKTKYQPAKLRNNYKFASVEDILKSCKVAKRPETNECDNETEAIREYMEECQSFAVFCFSDFYGERENNKATIPDYYDKAQDNAKRYAYLRMDGLDKKNSGRQENVSKLIPVRPRKDSIEREYRKPRNIALVDSPSQSQMRTTPRMLKKRDTDYFSAQAGRARASSTSLQVPTVTVTRQRHVTSPVIEDMIWNHFVRRGKNELMRVLQAAEIDKHSFFSLQQKDLEAMNSYTPENMKLIEDIQTAILSRSL", "soluble on expression in E. coli": "not soluble"}, {"sequence": "MSGALDGVRVLDLSRVLAGPYATMILGDLGADVIKVEAPGGSDDTRFWGPPFQNGMSAYYTAVNRNKRSITVNLKSAEGQETIRRLAETADVLIHNFKTGTMEQWELGYESLSRLNPRLIYCSITGFGETGPLAPLAGYDYIIQAMSGWMSINGTADTGPLKVGVAVTDVFTGLYAAIAIEAALLAREKTGRGQKIDLALFDCAVSALVNVAANYLLSGDVPKPLGNEHPNIVPYSTYMASDGPIVIAVGNDRQFQALCSLLSDHSLGTDPRFQTNPGRVAHREELNRRLNEEIKRRTRAEWQRLLAEKGIPCGPVQTLDELFRHPQTAAREMTVTVHHPIVGPLTLVASPLKLSDTAVSYRLPPPLAGEHNGEVEAGWQGKPAAENGPHDKNQ", "soluble on expression in E. coli": "not soluble"}, {"sequence": "MSGETTRLTEPQLRELAARGAAELDGATATDMLRWTDETFGDIGGAGGGVSGHRGWTTCNYVVASNMADAVLVDLAAKVRPGVPVIFLDTGYHFVETIGTRDAIESVYDVRVLNVTPEHTVAEQDELLGKDLFARNPHECCRLRKVVPLGKTLRGYSAWVTGLRRVDAPTRANAPLVSFDETFKLVKVNPLAAWTDQDVQEYIADNDVLVNPLVREGYPSIGCAPCTAKPAEGADPRSGRWQGLAKTECGLHAS", "soluble on expression in E. coli": "soluble"}, {"sequence": "MSGFKWSPDQKWISFLAVPTASWSADSNTLCLVRADGSRFEKVDQMLLNAQWFQWAPSKNILAYIEGSGRVALENKHLKVKELPALQQNIFTPKGYVDWDFVWKNDRVIIVSRAKEAGIETPPEKRPLPSLYEVDSTSNAQHQITKKTNKQGDYHPIFMKKSNQLIWIRSDRKKADVWLAHKDRKQEKKWIENIDVPAWYYEKWNWGNVISVKEELEHHHHHH", "soluble on expression in E. coli": "not soluble"}, {"sequence": "MSHAVSRLRQERLARSLKPFVARGSRMPRCEGCRLLPSYCMCAWRPRVEARAGMCLVMHDIEALKPTNTGWLIADTVADTFAFGWSRTEVDPRLLELLADPQWQPYLVFPGEYVAAERVVNEVAPLVEGKRPLFILLDATWTEARKMFRKSPYLEPFPVLSLLPEQLSRYRLRRSTRGEHLCTAEVAALCLELAGDEAAGEALGAYLEVFSERYLGAKRHIPLDEASPAHRALAPFRG", "soluble on expression in E. coli": "not soluble"}, {"sequence": "MSHELVELLRSVLKEELQPIHERLDRLEAGQQRLEERQQRLEERQQRLEERQQRLEEQQQRLGEKLDHFIIETRSHFKKIEDKLAGHRRMFDILPHDWRDTTMAIEYLKHKISQHDLEIYQLKKRLELQETK", "soluble on expression in E. coli": "not soluble"}, {"sequence": "MSHIIDRRLNGKNKSAVNRERFLRRFKAQIKEAVSKAIKGRSITDIESGEKVSIPVKDISEPSFHHGKGGVWENVHPGNEEFVKGDRIPRPQGGAGGGGSKASQDGEGEDDFVFQLSREEFMNVFFDDLALPNLVKTQLMGIEEMKTVRAGYTNDGTPTNINIVRSPRGALARRVAMAAPTLSSIDEAEEELDTLIESDDDNALEVRDRRQRIHQMKERLASIPWIDPFDLRYNNRVKQPKPTSQAVMFCIMDVSGSMDEQKKDMAKRFFILLYMFLQRNYEKIEVVFIRHHTSAVEVNEQDFFHSRESGGTVVSSALNLMSDVIRKRYASSEWNIYAAQASDGDNWDSDSANCGRILEENLLPYCQYFAYIEITEGEPQNLWYEYLKVKAQCPQFAMQKIRSASDIYPVFRELFKRQPANGRVSALEHHHHHH", "soluble on expression in E. coli": "soluble"}, {"sequence": "MSHTILLLQPTDNIESRSWSDYENTTECLEGICRVYEEYLKKKVPAQNEITYDISHLFEFIDDLKDLSMLVLDNTTYTYVPHNKQYVKESIYKLMNNRLNNQH", "soluble on expression in E. coli": "not soluble"}, {"sequence": "MSHVFQIHSSQYKSPSQIPQGKVLVVGGGNSGMQIAVEFAKTHEVTMSISHPLTFLPLHFFRKSIFNWLEKLGLLYAEVSTKRGKWFQKRKDPIFGFEGKELIRNGAIQLQEKVVSASENNIMFQNGETYSAESIIWSTGFIQNYNWIEIEKVVNENGLPNHIKGISPVRGLYYIGLEHHHHHH", "soluble on expression in E. coli": "soluble"}, {"sequence": "MSHVSLQEFLKTEPDGTLEVVAEQYNTTLLEVVRNLPSSTVVPGDKFDTVWDTVCEWGNVTTLVHTADVILEFSGELPSGFHRHGYFNLRGKHGMSGHIKAENCTHIALIERKFMGMDTASILFFNKEGSAMLKIFLGRDDHRQLLSEQVSAFHTLAASLKEHA", "soluble on expression in E. coli": "soluble"}]}]}
